{"source": "paper PMC10628242", "about": "“Enzymatic β-elimination in natural product O- and C-glycoside deglycosylation” (Nature Communications, 2023)", "key": {"[1]": {"substrate": "O=C(CCc1ccc(O)cc1)c1c(O)cc(O)cc1O[C@@H]1O[C@H](CO)[C@@H](O)C(=O)[C@H]1O", "experiment": "initial rates, HPLC of phloretin release", "type": "biochemical, human intestinal bacterium PUE", "settings": "potassium phosphate pH 6.0, 5% DMSO, 37 °C, preincubated with 5 mM MnCl2"}, "[2]": {"substrate": "O=C1[C@@H](O)[C@H](c2c(O)ccc3c(=O)c(-c4ccc(O)cc4)coc23)O[C@H](CO)[C@H]1O", "experiment": "initial rates, HPLC of daidzein release", "type": "biochemical, human intestinal bacterium PUE", "settings": "potassium phosphate pH 6.0, 5% DMSO, 37 °C, preincubated with 5 mM MnCl2, substrate is a 2/3-keto mixture"}, "[3]": {"substrate": "O=C(CCc1ccc(O)cc1)c1c(O)cc(O)cc1O[C@@H]1O[C@H](COP(=O)(O)O)[C@@H](O)[C@H](O)[C@H]1O", "experiment": "initial rates, HPLC of phloretin release", "type": "biochemical, Thermotoga maritima", "settings": "HEPES pH 7.5, 0.5 mM MnSO4, 0.3 mM NAD+, 37 °C"}, "[4]": {"substrate": "O=C(CCc1ccc(O)cc1)c1c(O)cc(O)cc1O[C@@H]1O[C@H](CO)[C@@H](O)C(=O)[C@H]1O", "experiment": "initial rates, HPLC of phloretin release", "type": "biochemical, Agrobacterium radiobacter", "settings": "potassium phosphate pH 6.0, 5% DMSO, 37 °C, printed kcat is 10-fold above the one implied by printed kcat/Km (1.2 × 10^6 M^−1s^−1) and by 235 U/mg"}, "[5]": {"substrate": "O=C(CCc1ccc(O)cc1)c1c(O)cc(O)cc1O[C@@H]1O[C@H](COP(=O)(O)O)[C@@H](O)[C@H](O)[C@H]1O", "experiment": "initial rates, HPLC of phloretin release", "type": "biochemical, Bacillus subtilis", "settings": "HEPES pH 7.5, 0.5 mM MnSO4, 0.3 mM NAD+, 37 °C"}}}
{"protein": "PuCGE (human intestinal bacterium PUE) (protein, heterodimer alpha (39,205 Da) + beta (18,313 Da), co-expressed from pET-Duet-1 in E. coli; N-terminal Strep-tag II; Mn2+ enzyme) chain 1: MSNVKLGVTLYSFSTEYCQGKMTLEDCIRTAKELGAAGFEIVATQMIPSYPYVSDKFLGELKSICQYYDMEPVCYGANCDRGLRGDRNLTGDEMVAMAVRDIKNAHKMGCKVVREQWLMGPENFAKLAPFAEHYGVKVGIEVHNPETPITQSTKDYIAAIDKTGSKYLGLIPDFGCFANKPNKMNWDNALADGADKKLLEMARDMKYDNVPYDEAVKRLTAAGAKKVELTTMRDMYTFLTFKKDVSAELQGLKDMIPYCIHMHGKYHYMYENLQEAAIPYDDIMKIVSESDYDGYIVSEYEEYNSGHSIEMLRRHLKMMHNFVD chain 2: MGLALRLNFVDVVCDDSLKNFWANGKKIGYQFDVRLSYYRGHFLSTIDEIGVKVDGVDVPAENISLCLDGKEYGVAELHDLVNVFWPIIEPATIKVFQPGGLSEEEHDVDFTLYFRSPYMALSETEYQSIDSCGSKRLNVQN", "values": [{"measurement": "Km", "setting": "[1]", "result": "0.6 (±0.1) mM"}, {"measurement": "kcat", "setting": "[1]", "result": "1.20 (±0.05) s^−1"}, {"measurement": "Km", "setting": "[2]", "result": "0.8 (±0.1) mM"}, {"measurement": "kcat", "setting": "[2]", "result": "18 (±0.4) s^−1"}]}
{"protein": "BglT (Thermotoga maritima MSB8) (protein, N-terminal Strep-tag II; E. coli; 48,997 Da; GH4, Mn2+ and NAD+ dependent) MRIAVIGGGSSYTPELVKGLLDISEDVRIDEVIFYDIDEEKQKIVVDFVKRLVKDRFKVLISDTFEGAVVDAKYVIFQFRPGGLKGRENDEGIPLKYGLIGQETTGVGGFSAALRAFPIVEEYVDTVRKTSNATIVNFTNPSGHITEFVRNYLEYEKFIGLCNVPINFIREIAEMFSARLEDVFLKYYGLNHLSFIEKVFVKGEDVTEKVFENLKLKLSNIPDEDFPTWFYDSVRLIVNPYLRYYLMEKKMFKKISTHELRAREVMKIEKELFEKYRTAVEIPEELTKRGGSMYSTAAAHLIRDLETDEGKIHIVNTRNNGSIENLPDDYVLEIPCYVRSGRVHTLSQGKGDHFALSFIHAVKMYERLTIEAYLKRSKKLALKALLSHPLGPDVEDAKDLLEEILEANREYVKLG", "values": [{"measurement": "Km", "setting": "[3]", "result": 300, "unit": "µM"}, {"measurement": "kcat", "setting": "[3]", "result": "~0.01", "unit": "s⁻¹"}]}
{"protein": "AtOGE (Agrobacterium radiobacter) (protein, N-terminal Strep-tag II kept in assays (cut by TEV only for crystallization); E. coli Lemo21(DE3); 29,895 Da subunit; Mn2+ enzyme; dimer in crystal) KLDDSKTLPIAAQMYTLRNAGTLEEQLAILNRAGVSAVETVDMQKVSASELNALLEKHKIKVISSHVPIDKLRGNLDEVITEQKAVGNPVVTVPFLKPEDRPKDAAGWTAFGKELGGYADKLSAAGLSMAYHNHDFEMVKFDGKTALELLLDAAGPKLQSELDVAWVARSGNDPAEFLGTLNGRVFAIHAKDDAPAGTAENERGFATIGTGVLDWKTILPAAKHAGAQWFILEHDLPLDAEAVVTKGNAFLSERLPTIQ", "values": [{"measurement": "Km", "setting": "[4]", "result": "0.10 (±0.01) mM"}]}
{"protein": "GlvA (Bacillus subtilis subsp. subtilis str. 168) (protein, N-terminal Strep-tag II; E. coli; 51,960 Da; GH4, Mn2+ and NAD+ dependent) MKKKSFSIVIAGGGSTFTPGIVLMLLDHLEEFPIRKLKLYDNDKERQDRIAGACDVFIREKAPDIEFAATTDPEEAFTDVDFVMAHIRVGKYAMRALDEQIPLKYGVVGQETCGPGGIAYGMRSIGGVLEILDYMEKYSPDAWMLNYSNPAAIVAEATRRLRPNSKILNICDMPVGIEDRMAQILGLSSRKEMKVRYYGLNHFGWWTSIQDQEGNDLMPKLKEHVSQYGYIPKTEAEAVEASWNDTFAKARDVQAADPDTLPNTYLQYYLFPDDMVKKSNPNHTRANEVMEGREAFIFSQCDMITREQSSENSEIKIDDHASYIVDLARAIAYNTGERMLLIVENNGAIANFDPTAMVEVPCIVGSNGPEPITVGTIPQFQKGLMEQQVSVEKLTVEAWAEKSFQKLWQALILSKTVPNARVARLILEDLVEANKDFWPELDQSPTRIS", "values": [{"measurement": "Km", "setting": "[5]", "result": 100, "unit": "µM"}, {"measurement": "kcat", "setting": "[5]", "result": "~0.02", "unit": "s⁻¹"}]}
